pKd: −log10 of the molar value.
Molecular target: full-length mouse Plexin-A1 protein (aa1 to 1894) (mouse) (UniProt P70206)
Assay: AP activity bound to Plexin-A1 expressing L cells, non-specific binding to parent L cells subtracted; Scatchard plot

Sequence of full-length mouse Plexin-A1 protein (aa1 to 1894) (mouse) (P70206 28-1894 limits assumed): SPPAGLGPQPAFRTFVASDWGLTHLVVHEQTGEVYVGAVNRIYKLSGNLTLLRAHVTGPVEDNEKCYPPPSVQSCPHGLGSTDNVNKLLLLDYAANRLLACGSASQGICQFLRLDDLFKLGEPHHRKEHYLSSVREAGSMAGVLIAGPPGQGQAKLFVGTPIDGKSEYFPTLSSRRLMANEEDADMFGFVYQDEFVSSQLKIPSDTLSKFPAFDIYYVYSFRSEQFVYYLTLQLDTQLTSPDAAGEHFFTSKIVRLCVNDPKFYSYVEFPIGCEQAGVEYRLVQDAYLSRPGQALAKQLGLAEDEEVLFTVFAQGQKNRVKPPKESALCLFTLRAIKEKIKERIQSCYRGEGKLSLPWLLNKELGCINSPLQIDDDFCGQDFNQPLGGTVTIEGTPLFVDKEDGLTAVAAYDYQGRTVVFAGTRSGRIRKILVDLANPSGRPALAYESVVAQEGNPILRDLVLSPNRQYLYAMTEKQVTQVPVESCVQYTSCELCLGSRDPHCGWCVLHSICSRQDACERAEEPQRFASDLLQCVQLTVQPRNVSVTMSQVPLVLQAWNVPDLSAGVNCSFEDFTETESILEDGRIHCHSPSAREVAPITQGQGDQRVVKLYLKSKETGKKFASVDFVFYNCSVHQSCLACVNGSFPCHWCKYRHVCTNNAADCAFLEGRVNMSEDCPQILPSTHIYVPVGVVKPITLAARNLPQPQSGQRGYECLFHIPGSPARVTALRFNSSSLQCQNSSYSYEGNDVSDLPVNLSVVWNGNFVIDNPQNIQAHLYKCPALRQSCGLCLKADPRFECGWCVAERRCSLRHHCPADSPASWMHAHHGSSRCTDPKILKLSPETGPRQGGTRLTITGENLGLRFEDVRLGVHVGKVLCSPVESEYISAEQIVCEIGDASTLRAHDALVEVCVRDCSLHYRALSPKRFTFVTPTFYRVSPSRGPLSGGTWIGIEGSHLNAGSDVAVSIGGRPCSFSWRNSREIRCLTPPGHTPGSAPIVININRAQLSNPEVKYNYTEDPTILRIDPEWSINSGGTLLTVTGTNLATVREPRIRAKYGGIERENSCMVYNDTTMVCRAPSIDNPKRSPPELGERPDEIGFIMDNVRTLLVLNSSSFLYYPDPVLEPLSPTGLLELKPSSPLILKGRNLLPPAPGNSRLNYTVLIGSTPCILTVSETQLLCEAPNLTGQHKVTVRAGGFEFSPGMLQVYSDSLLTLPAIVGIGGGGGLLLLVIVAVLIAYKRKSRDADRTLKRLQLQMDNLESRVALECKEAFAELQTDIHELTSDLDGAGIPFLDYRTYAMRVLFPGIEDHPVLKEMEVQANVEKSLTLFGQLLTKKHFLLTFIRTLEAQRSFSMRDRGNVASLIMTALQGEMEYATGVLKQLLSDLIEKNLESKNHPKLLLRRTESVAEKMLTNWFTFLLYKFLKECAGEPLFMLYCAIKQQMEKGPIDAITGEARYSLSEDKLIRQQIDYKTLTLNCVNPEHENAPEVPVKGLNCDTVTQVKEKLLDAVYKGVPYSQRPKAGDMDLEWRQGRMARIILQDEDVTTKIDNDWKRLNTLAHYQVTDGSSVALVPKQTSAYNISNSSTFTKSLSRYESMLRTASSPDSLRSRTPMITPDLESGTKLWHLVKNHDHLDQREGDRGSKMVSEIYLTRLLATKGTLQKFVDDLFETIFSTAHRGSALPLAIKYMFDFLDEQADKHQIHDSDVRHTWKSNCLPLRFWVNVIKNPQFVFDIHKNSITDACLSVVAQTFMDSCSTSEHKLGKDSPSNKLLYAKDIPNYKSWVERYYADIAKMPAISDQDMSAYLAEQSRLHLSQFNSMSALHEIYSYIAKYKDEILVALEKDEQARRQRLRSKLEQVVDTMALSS

pKd: 7.78
Substance: Sema6C-alkaline phosphatase fusion protein (Sema6C-S-AP) (from UniProt Q9WTL3 24-599; P05187 23-511) (ligand)
